Experiment [1] has as its target PDIA1 (human) (UniProt P07237). In words: co-IP from LIM1215 lysates equalised for ADAM10, mass spectrometry.
Experiment [2] addresses T1, AxxA mutant human ADAM10 (Cys594 and Cys597 to alanine) (human, UniProt O14672 214-748).
T1 construct: Expressed in ADAM10-/- mouse embryonic fibroblasts; tested in detergent lysates by IP; also called AXXA mutant ADAM10; AxxA ADAM10; not shown: turbo-myc tag of the OriGene construct
T1 sequence: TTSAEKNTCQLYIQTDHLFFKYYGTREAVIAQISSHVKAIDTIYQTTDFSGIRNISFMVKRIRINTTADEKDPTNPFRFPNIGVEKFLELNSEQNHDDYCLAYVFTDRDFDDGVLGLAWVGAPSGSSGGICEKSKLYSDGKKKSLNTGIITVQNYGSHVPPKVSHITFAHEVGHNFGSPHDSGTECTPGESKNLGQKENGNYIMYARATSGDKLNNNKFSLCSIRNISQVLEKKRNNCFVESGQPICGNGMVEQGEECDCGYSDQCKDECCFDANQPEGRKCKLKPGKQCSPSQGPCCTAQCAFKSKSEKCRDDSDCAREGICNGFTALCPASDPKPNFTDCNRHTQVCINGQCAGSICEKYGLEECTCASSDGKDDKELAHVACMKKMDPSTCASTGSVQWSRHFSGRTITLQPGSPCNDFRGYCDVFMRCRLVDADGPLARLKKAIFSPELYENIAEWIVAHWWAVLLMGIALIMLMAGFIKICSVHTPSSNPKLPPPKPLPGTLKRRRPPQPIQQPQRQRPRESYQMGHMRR
In words: immunoprecipitation from lysates of ADAM10-/- MEFs transfected with AxxA mutant ADAM10, Western blot α-ADAM10. On the technique in general: In western blotting, separated proteins are transferred to a membrane and probed.

For experiment [3], the target named is T2, recombinant huADAM10D+C protein (human, UniProt O14672 455-646).
T2 construct: the whole entry is named here (the bovine construct was 455-646); also called huADAM10D+C domain protein; immobilised recombinant huADAM10D+C
T2 sequence: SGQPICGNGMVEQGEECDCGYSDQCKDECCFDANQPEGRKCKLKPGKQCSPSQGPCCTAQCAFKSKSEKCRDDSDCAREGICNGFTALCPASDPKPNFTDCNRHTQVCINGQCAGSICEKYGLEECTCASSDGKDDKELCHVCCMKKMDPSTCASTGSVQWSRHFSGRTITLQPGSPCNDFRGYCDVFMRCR
Nature of the experiment: SPR, BIAcore 3000, huADAM10D+C immobilised, antibody in solution.

Broadly, the Kd is the equilibrium constant for the complex coming apart. Broadly, the koff is a measure of how fast the partners let go of each other. As a reminder, the kon is a measure of how fast the partners come together.

Changes are numbered by the printed parent chain. Where only a bound is given, the exact number is not on record here.

PDIA1 (human), sequence (P07237 18-508 limits assumed): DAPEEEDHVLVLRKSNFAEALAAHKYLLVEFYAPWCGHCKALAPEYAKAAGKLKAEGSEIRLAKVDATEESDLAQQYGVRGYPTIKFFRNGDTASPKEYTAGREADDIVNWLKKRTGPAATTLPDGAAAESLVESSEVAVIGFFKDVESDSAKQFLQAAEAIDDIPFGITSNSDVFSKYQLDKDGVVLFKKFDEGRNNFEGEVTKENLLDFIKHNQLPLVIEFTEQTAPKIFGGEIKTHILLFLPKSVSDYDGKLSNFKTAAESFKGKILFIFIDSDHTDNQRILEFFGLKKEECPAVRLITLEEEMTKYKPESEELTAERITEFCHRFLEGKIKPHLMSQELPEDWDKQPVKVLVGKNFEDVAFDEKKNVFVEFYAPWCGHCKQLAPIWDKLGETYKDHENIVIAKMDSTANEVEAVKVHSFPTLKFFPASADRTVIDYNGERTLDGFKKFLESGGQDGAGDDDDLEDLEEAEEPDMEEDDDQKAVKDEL

“human ADAM10, endogenous full length (from UniProt O14672 214-748) (enzyme)” registered a fold more peptides detected in 8C7 IPs than in 4A11 IPs in experiment [1] greater than 50 fold.

B1: anti-ADAM10 monoclonal antibody 8C7 (murine) (antibody, V domains shown)
VH: EVQLQQSGAELARPGSSVKLSCKASGYTFTNYWLQWVKQRTGQGLEWIGAIYPRDGDAKYSQKFKDKASLTVNESSSTAYMHLSALASEDSAVYYCARANYGLYYAMDRWGQGTSVTVSS
VL: DIFLTQSPANMSVSPGERVSFSCRASQNIGTNIHWYQQRTNGSPRLLIKYASESISGIPSRFSGSGSGTDFILSINTVESEDIAVYFCQQSNRWPFTFGSGTKLEVI
modifications: Alexa647 dye or coupling to Minileak beads in some experiments; not carried by the letters
notes: Murine whole IgG; Used soluble, coupled to Minileak beads, or Alexa647-labelled depending on the experiment; also called mAb 8C7; mAb8C7
Turning to B1, in experiment [2], the binding result is given as “no binding”.

B2: hu8C7, fully humanised version of 8C7 (antibody, human IgG1, kappa, V domains shown)
VH: B1 VH with R13K, T41P, L70I, S76T, A85S, A87R, S91T, S115T
VL: DIVLTQSPAFMSVSPGERVSVSCRASQNIGTNIHWYQQRPDQSPRLLIKYASESISGIPSRFSGSGSGTDFYLTINSVESEDIAVYFCQQSNRWPFTFGSGTKLEVKR
notes: Human IgG1-kappa; humanised variable domains replaced the murine ones in the ch8C7 constructs; The exact V/C junction is not described; also called humanized 8C7
Regarding B2, in experiment [3], the Kd came to 7.33 nM, the koff was found to be 0.00122 s⁻¹ and the kon came to 166000 M⁻¹ s⁻¹.

B3: ch8C7, human and mouse chimerised version of mAb 8C7 (antibody, V domains shown)
VH: B1 VH
VL: B2 VL with V3F, F10N, V21F, P40T, D41N, Q42G, Y72I, T74S, S77T, K107I
notes: The exact V/C junction is not described; also called chimeric 8C7
B3: in experiment [3], the Kd stood at 6.71 nM, the koff came to 0.00105 s⁻¹ and the kon is 157000 M⁻¹ s⁻¹.
